± gives the standard deviation of the averaged measurements.
Assay: total protein half-life in vivo (active degradation + dilution); higher = more stable protein
[1] = E. coli NCM3722 delta-clpP delta-lon delta-hslV, growth: N-lim chemostat, doubling time 6 h
[2] = E. coli NCM3722 delta-clpP, growth: N-lim chemostat, doubling time 6 h
[3] = E. coli NCM3722 delta-hslV, growth: N-lim chemostat, doubling time 6 h
[4] = E. coli NCM3722 delta-lon, growth: N-lim chemostat, doubling time 6 h
[5] = E. coli NCM3722 delta-smpB, growth: N-lim chemostat, doubling time 6 h
[6] = wild type E. coli NCM3722, growth: C-lim chemostat, doubling time 3 h
[7] = wild type E. coli NCM3722, growth: C-lim chemostat, doubling time 6 h
[8] = wild type E. coli NCM3722, growth: C-lim chemostat, doubling time 12 h
[9] = wild type E. coli NCM3722, growth: N-lim chemostat, doubling time 6 h
[10] = wild type E. coli NCM3722, growth: N-lim chemostat, doubling time 12 h
[11] = wild type E. coli NCM3722, growth: P-lim chemostat, doubling time 6 h
[12] = wild type E. coli NCM3722, growth: P-lim chemostat, doubling time 12 h

Sequence	total protein half-life in vivo [1]	total protein half-life in vivo [2]	total protein half-life in vivo [3]	total protein half-life in vivo [4]	total protein half-life in vivo [5]	total protein half-life in vivo [6]	total protein half-life in vivo [7]	total protein half-life in vivo [8]	total protein half-life in vivo [9]	total protein half-life in vivo [10]	total protein half-life in vivo [11]	total protein half-life in vivo [12]
MCGIVGAIAQRDVAEILLEGLRRLEYRGYDSAGLAVVDAEGHMTRLRRLGKVQMLAQAAEEHPLHGGTGIAHTRWATHGEPSEVNAHPHVSEHIVVVHNGIIENHEPLREELKARGYTFVSETDTEVIAHLVNWELKQGGTLREAVLRAIPQLRGAYGTVIMDSRHPDTLLAARSGSPLVIGLGMGENFIASDQLALLPVTRRFIFLEEGDIAEITRRSVNIFDKTGAEVKRQDIESNLQYDAGDKGIYRHYMQKEIYEQPNAIKNTLTGRISHGQVDLSELGPNADELLSKVEHIQILACGTSYNSGMVSRYWFESLAGIPCDVEIASEFRYRKSAVRRNSLMITLSQSGETADTLAGLRLSKELGYLGSLAICNVPGSSLVRESDLALMTNAGTEIGVASTKAFTTQLTVLLMLVAKLSRLKGLDASIEHDIVHGLQALPSRIEQMLSQDKRIEALAEDFSDKHHALFLGRGDQYPIALEGALKLKEISYIHAEAYAAGELKHGPLALIDADMPVIVVAPNNELLEKLKSNIEEVRARGGQLYVFADQDAGFVSSDNMHIIEMPHVEEVIAPIFYTVPLQLLAYHVALIKGTDVDQPRNLAKSVTVE	5.12 ± 0.77 h	5.07 ± 1.3 h	4 ± 0.11 h	4.01 ± 0.15 h	3.98 ± 0.33 h	3.14 ± 0.23 h	5.37 ± 0.3 h	9.64 ± 0.98 h	4.14 ± 0.067 h	6.35 ± 0.37 h	5.8 ± 0.14 h	11.3 ± 0.96 h
MCGIVGIAGVMPVNQSIYDALTVLQHRGQDAAGIITIDANNCFRLRKANGLVSDVFEARHMQRLQGNMGIGHVRYPTAGSSSASEAQPFYVNSPYGITLAHNGNLTNAHELRKKLFEEKRRHINTTSDSEILLNIFASELDNFRHYPLEADNIFAAIAATNRLIRGAYACVAMIIGHGMVAFRDPNGIRPLVLGKRDIDENRTEYMVASESVALDTLGFDFLRDVAPGEAIYITEEGQLFTRQCADNPVSNPCLFEYVYFARPDSFIDKISVYSARVNMGTKLGEKIAREWEDLDIDVVIPIPETSCDIALEIARILGKPYRQGFVKNRYVGRTFIMPGQQLRRKSVRRKLNANRAEFRDKNVLLVDDSIVRGTTSEQIIEMAREAGAKKVYLASAAPEIRFPNVYGIDMPSATELIAHGREVDEIRQIIGADGLIFQDLNDLIDAVRAENPDIQQFECSVFNGVYVTKDVDQGYLDFLDTLRNDDAKAVQRQNEVENLEMHNEG [P0AG16]	5.35 ± 1.5 h	4.19 ± 0.24 h	2.31 ± 0.34 h	2.37 ± 0.23 h	2.13 ± 0.17 h	2.301 ± 0.0058 h	4.01 ± 0.4 h	5.59 ± 0.33 h	2.25 ± 0.18 h	2.8937 ± 0.00088 h	3.6 ± 0.23 h	6.17 ± 0.076 h
MCSIFGVFDIKTDAVELRKKALELSRLMRHRGPDWSGIYASDNAILAHERLSIVDVNAGAQPLYNQQKTHVLAVNGEIYNHQALRAEYGDRYQFQTGSDCEVILALYQEKGPEFLDDLQGMFAFALYDSEKDAYLIGRDHLGIIPLYMGYDEHGQLYVASEMKALVPVCRTIKEFPAGSYLWSQDGEIRSYYHRDWFDYDAVKDNVTDKNELRQALEDSVKSHLMSDVPYGVLLSGGLDSSIISAITKKYAARRVEDQERSEAWWPQLHSFAVGLPGSPDLKAAQEVANHLGTVHHEIHFTVQEGLDAIRDVIYHIETYDVTTIRASTPMYLMSRKIKAMGIKMVLSGEGSDEVFGGYLYFHKAPNAKELHEETVRKLLALHMYDCARANKAMSAWGVEARVPFLDKKFLDVAMRINPQDKMCGNGKMEKHILRECFEAYLPASVAWRQKEQFSDGVGYSWIDTLKEVAAQQVSDQQLETARFRFPYNTPTSKEAYLYREIFEELFPLPSAAECVPGGPSVACSSAKAIEWDEAFKKMDDPSGRAVGVHQSAYK	3.62 ± 0.55 h	2.71 ± 0.25 h	2.84 ± 0.048 h	3.181 ± 0.025 h	2.55 ± 0.069 h	2.87 ± 0.069 h	4.97 ± 0.21 h	7.86 ± 0.95 h	2.69 ± 0.025 h	3.857 ± 0.0049 h	5.61 ± 0.3 h	10.4 ± 0.4 h
MDAKQRIARRVAQELRDGDIVNLGIGLPTMVANYLPEGIHITLQSENGFLGLGPVTTAHPDLVNAGGQPCGVLPGAAMFDSAMSFALIRGGHIDACVLGGLQVDEEANLANWVVPGKMVPGMGGAMDLVTGSRKVIIAMEHCAKDGSAKILRRCTMPLTAQHAVHMLVTELAVFRFIDGKMWLTEIADGCDLATVRAKTEARFEVAADLNTQRGDL	–	–	–	0.206 h	–	–	–	–	1.83 h	–	–	–
MDFPQQLEACVKQANQALSRFIAPLPFQNTPVVETMQYGALLGGKRLRPFLVYATGHMFGVSTNTLDAPAAAVECIHAYSLIHDDLPAMDDDDLRRGLPTCHVKFGEANAILAGDALQTLAFSILSDADMPEVSDRDRISMISELASASGIAGMCGGQALDLDAEGKHVPLDALERIHRHKTGALIRAAVRLGALSAGDKGRRALPVLDKYAESIGLAFQVQDDILDVVGDTATLGKRQGADQQLGKSTYPALLGLEQARKKARDLIDDARQSLKQLAEQSLDTSALEALADYIIQRNK	4.5 ± 0.14 h	5.14 ± 0.67 h	4.44 ± 0.056 h	4.579 ± 0.024 h	4.63 ± 0.38 h	3.14 ± 0.08 h	5.849 ± 0.0072 h	11.5 ± 0.9 h	4.46 ± 0.66 h	6.952 ± 0.057 h	5.75 ± 0.13 h	11.2 ± 0.6 h
MDFPQRVNGWALYAHPCFQETYDALVAEVETLKGKDPENYQRKAATKLLAVVHKVIEEHITVNPSSPAFRHGKSLGSGKNKDWSRVKFGAGRYRLFFRYSEKEKVIILGWMNDENTLRTYGKKTDAYTVFSKMLKRGHPPADWETLTRETEETH	–	6.54 h	5.12 h	7.11 ± 0.75 h	5.58 h	3.3 h	> 8 h	10.2 h	6.09 ± 0.47 h	12.2 h	5.56 ± 0.21 h	15.6 h
MDFSGKNVWVTGAGKGIGYATALAFVEAGAKVTGFDQAFTQEQYPFATEVMDVADAAQVAQVCQRLLAETERLDALVNAAGILRMGATDQLSKEDWQQTFAVNVGGAFNLFQQTMNQFRRQRGGAIVTVASDAAHTPRIGMSAYGASKAALKSLALSVGLELAGSGVRCNVVSPGSTDTDMQRTLWVSDDAEEQRIRGFGEQFKLGIPLGKIARPQEIANTILFLASDLASHITLQDIVVDGGSTLGA	–	–	–	–	–	3.26 ± 0.27 h	–	–	–	–	–	–
MDFSLTEEQELLLASIRELITTNFPEEYFRTCDQNGTYPREFMRALADNGISMLGVPEEFGGIPADYVTQMLALMEVSKCGAPAFLITNGQCIHSMRRFGSAEQLRKTAESTLETGDPAYALALTEPGAGSDNNSATTTYTRKNGKVYINGQKTFITGAKEYPYMLVLARDPQPKDPKKAFTLWWVDSSKPGIKINPLHKIGWHMLSTCEVYLDNVEVEESDMVGEEGMGFLNVMYNFEMERLINAARSTGFAECAFEDAARYANQRIAFGKPIGHNQMIQEKLALMAIKIDNMRNMVLKVAWQADQHQSLRTSAALAKLYCARTAMEVIDDAIQIMGGLGYTDEARVSRFWRDVRCERIGGGTDEIMIYVAGRQILKDYQNK [P0A9U8]	6.36 ± 0.59 h	–	1.41 h	–	1.03 h	2.23 h	> 8 h	2.25 h	–	2.165 ± 0.02 h	0.772 h	2.42 h

— the supplement of paper PMC11246515
